Reference: US20240043859A1, “HERBICIDE-RESISTANT PROTEIN, AND GENE AND USE THEREOF” (QINGDAO KINGAGROOT CHEMICAL COMPOUND CO., LTD., priority 2020, published 2024)
“Also recorded” adds a separate entry of the source.

B1: QYD73: AAD-like enzyme, SEQ ID NO. 145 (protein)
chain: MARTFDVQPLDATFGAVISGVKLAALDDETWRELYATWLQYALLVFPGQHLSRDQQIAFARRFGPLEFEIIALSNVKSDGTIRSEVENDDVIKVLKGNMGWHADSTYMPVQAKGAVFTAEVVPSVGGQTGWADMRAAYDALDGATRQKVEQLSAYHSLHYSQSKLGHQHKPGSAYSGYGFHDGPVPLRPLVKTHPETGRKSLLIGRHAHNIPGMDKDESARFLEDLVASACQPPRIYHHTWAAGDAVVWDNRCLLHQATPWDMTQPRVMWHSRIAGDPLSEAALG
modifications: Synthetic polypeptide, QYD73, D73
B2: QYD76: AAD-like enzyme, SEQ ID NO. 151 (protein)
chain: MARMFDIAPLDATFGAVVTGVKVTRIDDATWRDLHAAWLEYALLIFPGQFLSRAEQIAFAKRFGPLEFEMAPISNVKADGTIRIEADNDDVVKVLKGNMGWHADSTYMPVQAKGAVFSAEVVPGEGGRTGWADMRAAYDALDAARRVRVESLTAYHSLYYSQAKLGHQPKRGSDYSGYGFHDGPVPRRPLVKVHPETGRKSLLIGRHAHNIPGMDVAESTQFLESLVDFACQPPRIYHHQWTAGDAVVWDNRCLLHRATPWDMTKPRVMWHSRIAGDPVSEASLG
modifications: Synthetic polypeptide, QYD76, D76
B3: QYD50: AAD-like enzyme, SEQ ID NO. 99 (protein)
chain: MEEPDMARTLGIEPLAGTTFGAVVKGVKVTALDDATWRELHAAWLQYALLIFPDQHLKRAEQIAFARRFGPLEFEMAAISNVKADGSLRIEADNDDVMKILKGNMGWHCDSTYMPVQAKGAVFSAEVVPSIGGRTGFADMRAAWDALDDALKARIETLSAYHSLHHSQSKLGHQTNKRDGEYSGYGLHDGPVPLRQLVKVHPETGRKSLLIGRHAHNIPGMDKADSERLLQELVDFACQPPRIYHHDWAAGDAVVWDNRCLLHQATPWDMTQPRVMWHSRIAGDPRSEAALGGSAVSAAASG
modifications: Synthetic polypeptide, QYD50, D50
B4: QYD58: AAD-like enzyme, SEQ ID NO. 115 (protein)
chain: MARTFDIEPLAGTTFGAVVRGMKVAILDDAGWRDLYAAWLKYALLVFPGQHLKRDEQIAFAKRFGALEFEMAALSNVKSDGTLRQEKDNDDMMKILKGNMGWHADSTYMPVQAKGAVFSAEIVPGAGGQTGFADMRAAYDALDAGRKAKVERLAAHHSLHYSQSKLGHQTKKQDGEYSGYGLHDGPVPLRPLVKTHPETGRKSLLIGRHAHNIPGMDKAESERLLQELVDFACQPPRVYHHDWTAGDAVVWDNRCLLHQATPWDMTQPRVMWHSRIAGDPRSEAALGVTAVSAAASG
modifications: Synthetic polypeptide, QYD58, D58
B5: QYD72: AAD-like enzyme, SEQ ID NO. 143 (protein)
chain: MAADAPFVVKPLPASFGAVVTGLALADLDEAAFAALYRTWLDYALLIFPGQHLDRDQQIAFARRFGPLEFDIAPISNVRSDGSVRPDDDADDVVKVLKGNMGWHCDSTYMPVQAKGAVFTAHVVPEDGGETDWADMRAAYDALDPAMRRRIEGLSAYHSLRHSQGKLGHVHKPGSAYSGYGMTVEAPPLRPLVKVHPETSRKTLMVGRHAYGIPGFEDAESERLLDELADFACRPPRTWRHSWTPGDAVIWDNRALMHRACPWDMTRPRVMYHSRLAGDPVAEFAAPA
modifications: Synthetic polypeptide, QYD72, D72
B6: QYD34: AAD-like enzyme, SEQ ID NO. 67 (protein)
chain: MSMQVIPLDATFGATVTGLKLSELDEAVFAEIYDHWLRYSLLVFPGQNLDNEQQVTFAKRFGALEIDLVELSNVKDDGSLRTAPDDDRIKILKGNMGWHHDSTYMPVQAKGAVFRADTVPSHGGETGWADMCAAYDALGDAMRNRIEGLSAHHSLTYSQGKAGFKHKDKDSEYNGYGLDQDGAPLRPLVKTHAETGRKTLTIGRHAHAVPGLSQADSEALLTELVDFACQPPRIYHHGWQPGDVVVWDNRCLMHQACPWDMAERRVMFHSRLAGDPEHEFAAPN
modifications: Synthetic polypeptide, QYD34, D34
B7: QYD74: AAD-like enzyme, SEQ ID NO. 147 (protein)
chain: MARAFDIEPLDATFGAIITGVKLAALDDAVWRDLYAAWLEYALLIFPSQNLGRDEQIAFAKRFGALEFELAPISNVNSDGTLITDPDNDILKVLKGNMGWHSDSTYMPIQAKGAVFSARVVPKSGGSTGWADMRAAYDALDDNLKRKVERLAAHHSLRYSQAKLGHFPKKHSAYSGYGFHDGPEPLRPLVKTHPETGRKSLLIGRHAHNIPGMSAEESERFLQELVDFACRPPRVYHHEWTAGDVAVWDNRCLLHQATPWDMSEPRVMWHSRIAGDPTTESALA
modifications: Synthetic polypeptide, QYD74, D74

How the values were obtained:
[1] = Chromogenic reaction of degrading herbicides in bacteria: 2,4-D; assay type: cell-based, Escherichia coli; settings: recombinant E. coli expressing the gene, 2,4-D added to the medium, red = phenols
Procedure, shortened: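 E. coli BL21(DE3) carrying AAD12 or empty pET15b was induced with 0.1 mM IPTG plus 2 mM α-ketoglutarate and given 0.5 mM 2,4-D, then grown overnight at 28 °C. Supernatant was treated with pH 10 borate, potassium ferricyanide and 4-aminoantipyrine for 5 min at room temperature; red colour read at A510.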

[2] = assay type: cell-based, Escherichia coli
Protocol: (§1) To transform the plasmids to be tested, an AAD12-expressing plasmid and a blank control plasmid pET15b were respectively transformed into the protein expression E. coli BL21(DE3) strains. A monoclone was selected and inoculated in a 10 ml centrifuge tube with 3 ml LB medium, and cultivated at 37° C., 200 rpm for 6-8 hours. […] The temperature was switched to 28° C. and the cultivation continued overnight. In the next morning, 200 μL of each bacteria solution was taken and centrifuged to precipitate thallus, 180 μL of the supernatant was taken and added in a 96-well plate, and 20 μL of borate buffer of pH 10 was added. Then the mixture was added with 2 μL of 8% potassium ferricyanide and mixed well, followed by adding 2 μL of 2% 4-aminoantipyrine, and placed at room temperature for 5 min to observe the color and detect the A510 value. […]

[3] = Chromogenic reaction of degrading herbicides in bacteria: triclopyr; assay type: cell-based, Escherichia coli; settings: recombinant E. coli expressing the gene
Protocol: as §1

Arabidopsis thaliana = test: Herbicide resistance of transgenic Arabidopsis thaliana seedlings on plate medium (root growth); assay type: in vivo; settings: Arabidopsis overexpressing the gene
Protocol: Expression in Arabidopsis thaliana was regulated by its AtUbi10 Arabidopsis thaliana ubiquitin promoter and the MAS (mannopine synthase) terminator. Hygromycin resistance gene (HygR=hpt) served as the selection marker.
Preparation of Agrobacterium infection solution: An activated Agrobacterium (GV3101) monoclone was picked and inoculated in 30 ml YEP liquid medium [yeast powder 10 g/L, tryptone 10 g/L, NaCl 5 g/L, 25 mg/L Rifampicin and 50 mg/L Kanamycin], shaking-cultured at 200 rmp/min, 28° C. overnight until the OD600 was about 1.0-1.5, then centrifuged at 6000 rmp/min for 10 min to collect the bacteria, and the supernatant was discarded. Arabidopsis thaliana infection solution (sucrose 50 g/L, Silwet L-77 300 μL/L, no need to adjust pH) was used to resuspend the cells to OD600=0.8 for later use.
Genetic transformation of Arabidopsis thaliana by flower dipping: Before transformation of Arabidopsis thaliana plants, attentions were paid to whether the plants were growing well, the inflorescences were abundant, and no stress response occurred. The first transformation was performed when plants were about 20 cm high. Plants could be properly watered if the soil was dry. The grown siliques were cut off with scissors the day before transformation. The inflorescences of the plants to be transformed were soaked in the above-mentioned Agrobacterium solution for 30 seconds to 1 minute, which was stirred gently during the period. And a layer of liquid film should appear on the infiltrated plant. The transformed plants were cultured in a dark environment for 24 hours, and then taken out and grown in a normal light environment. A second transformation could be performed in the same way a week later.
Seeds were treated with disinfectant for 5 min, washed with sterile water for 5 times and then one part was spread on MS transgenic screening medium (containing 30 μg/mL hygromycin, 100 μg/mL carbenicillin) to screen transgenic seedlings, and the other part was spread on MS medicated medium [containing 250 μg/mL Cefotaxime sodium and 0.3 μM 2,4-D] to screen herbicide-resistant seedlings at mean time. The petri dish spread with seeds was placed at 4° C. for vernalization for 3 days, and taken out to a illumination incubator for cultivation (temperature of 22° C., 16 hours of light, 8 hours of darkness, light intensity of 100-150 μmol/m^2/s, humidity of 75%). After one week, it was observed that the roots of the wild-type control seedlings were not elongated and their growth was inhibited, while the transgenic seedlings had normal root growth, showing drug resistance. The transgenic positive seedlings and herbicide-resistant seedlings were photographed and transplanted into small pots filled with soil for cultivation.
The transgenic lines with the nine vectors, pQY2309, pQY2310, pQY2311, pQY2312, pQY2313, pQY2314, pQY2315, pQY2316 and pQY2317, overexpressing AAD gene in the T2 generation were further tested on plate medium for their resistance to 2,4-D, 2,4-DB sodium and MCPA herbicide. Two events were tested for each transformant.

Row | Molecule | Chromogenic reaction of degrading herbicides in bacteria: 2,4-D [1] | Chromogenic reaction of degrading herbicides in bacteria: MCPA [2] | Chromogenic reaction of degrading herbicides in bacteria: Triclopyr [3] | further results
1 | B1 | Yes | Yes | Yes | Chromogenic reaction of degrading herbicides in bacteria: 2,4-D ([1]; listed as D73): could degrade 2,4-D; also recorded: capable of degrading 2,4-D; Chromogenic reaction of degrading herbicides in bacteria: Triclopyr ([3]; listed as D73): slight degradation
2 | B2 | Yes | Yes | Yes | Chromogenic reaction of degrading herbicides in bacteria: 2,4-D ([1]; listed as D76): could degrade 2,4-D; also recorded: capable of degrading 2,4-D; Chromogenic reaction of degrading herbicides in bacteria: Triclopyr ([3]; listed as D76): slight degradation
3 | B3 | Yes | Yes |  | Chromogenic reaction of degrading herbicides in bacteria: 2,4-D ([1]; listed as D50): could degrade 2,4-D; also recorded: capable of degrading 2,4-D; Resistance of transgenic Arabidopsis thaliana: 2,4-D (Arabidopsis thaliana): Yes; Resistance of transgenic Arabidopsis thaliana: MCPA (Arabidopsis thaliana): Yes
4 | B4 | Yes | Yes | Yes | Chromogenic reaction of degrading herbicides in bacteria: 2,4-D ([1]; listed as D58): could degrade 2,4-D; also recorded: capable of degrading 2,4-D; Chromogenic reaction of degrading herbicides in bacteria: Triclopyr ([3]; listed as D58): slight degradation
5 | B5 | Yes | Yes | Yes | Chromogenic reaction of degrading herbicides in bacteria: 2,4-D ([1]; listed as D72): could degrade 2,4-D; also recorded: capable of degrading 2,4-D; Chromogenic reaction of degrading herbicides in bacteria: Triclopyr ([3]; listed as D72): slight degradation
6 | B6 | Yes | NO |  | Chromogenic reaction of degrading herbicides in bacteria: 2,4-D ([1]; listed as D34): red reactions; Resistance of transgenic Arabidopsis thaliana: 2,4-D (Arabidopsis thaliana): Yes
7 | B7 | Yes | Yes | Yes | Chromogenic reaction of degrading herbicides in bacteria: 2,4-D ([1]; listed as D74): could degrade 2,4-D; also recorded: capable of degrading 2,4-D; Chromogenic reaction of degrading herbicides in bacteria: Triclopyr ([3]; listed as D74): slight degradation
